Measurements published in patent US10100120B2, “Antibody which specifically binds to human CRTH2” (KYOWA HAKKO KIRIN CO., LTD, priority 2015, dated 2018).

Tested on: human eosinophils
Assay: Eosinophil depletion (cytotoxic) activity in human peripheral blood cells, flow cytometry
Format: cell-based
Conditions: 37° C., 20 hours
Description: Human peripheral blood collected by adding a heparin sodium injection liquid was centrifuged at 4° C. and 1500 rpm for 30 minutes, and the plasma was recovered.
After the plasma was recovered, PBS (NACALAI TESQUE, Inc.) was added to the pellet containing the red blood up to the original volume of blood and the pellet was suspended. Next, to 1 mL of the suspension, 10 mL of hemolyzing solution [solution obtained by diluting 10×RBC Lysis buffer (eBioscience) 10 times with sterile water] was added to be mixed by inversion. The resultant was allowed to stand at room temperature for 10 minutes and centrifuged at room temperature and 1500 rpm for 5 minutes and washed twice with PBS after the supernatant was removed therefrom.
Thereafter, the cell pellet was suspended with the recovered plasma and the cells were seeded in a 48-well plate at 300 μL/well, each of chLym2, humanized Lym2 antibodies LV0HV0, LV0HV1, and LV0HV2a, or an isotype control antibody [IgG1 antibody prepared according to the method described in Example 5 using a vector encoding an anti-2,4-dinitrophenol (DNP) IgG1 antibody described in Clin Cancer Res 2005, 11(8), 3126 to 3135 (hereinafter, referred to as anti-DNP IgG1 antibody)] were added at each final concentrations of 1000, 100, 33, 11, 3.7, 1.2, 0.4, and 0.01 ng/mL to cause a reaction in a 5% CO2 incubator at 37° C. for 20 hours.
After the reaction, the cell fluid in each well was recovered, 10 mL of SM was added thereto, 200 μL per sample of CountBright Absolute Counting Beads, for flow cytometry (Molecular Probes) was added as control beads, and the fluid was centrifuged at 4° C. and 2000 rpm for 10 minutes, and then the supernatant was removed. The resultant was washed twice with SM, 10000 μg/mL of IgG from human serum (Sigma-Aldrich Co. LLC) diluted with SM was added at 300 μL/sample and suspended to cause a reaction at 4° C. for 30 minutes. […]
The cells were washed twice with SM, suspended by SM containing 1% of 7-AAD Staining Solution (BD Biosciences), allowed to stand at 4° C. for 10 minutes, and the fluorescent intensity was analyzed by flow cytometry (BD Biosciences, FACS CantoII).
Human eosinophils were detected as 7-AAD negative siglec8-PE positive fractions in granulocyte fractions of FSC-SSC deployment. Human basophils were detected as 7-AAD negative fractions, CD123-PC-Cy7 positive fractions, FcεRI-APC positive fractions in lymphocyte fractions of FSC-SSC deployment. The cell depletion activity was evaluated by analyzing the count number of each cell per a certain number of CountBright. […]

B1: LV0HV1: humanized Lym2 antibody, VL LV0 (SEQ ID NO: 33), VH HV1 (SEQ ID NO: 51) (antibody, V domains shown)
VH: EVQLVESGGGVVQPGRSLRLSCAASGFTFSNYYMAWVRQAPGKGLEWVATISYDGSSTYYRDSVKGRFTISRDNAKNSLYLQMNSLRAEDTATYYCARHRGYYYSGAGYFDYWGQGTMVTVSS
VL: DIVMTQTPLSLPVTPGESASISCRSSQSLEYSDGYTYLEWYLQKPGQSPQVLIYGVSNRFSGVPDRFSGSGSGTDFTLKISRVEAEDVGVYYCFQATHDPLTFGQGTKLEIK
Q: Which results are given for B1?
A: cytotoxic activity against eosinophils (Example 8, 0.01-1000 ng/mL, FIG. 3): comparable to the chimeric Lym2 antibody chLym2; removal of eosinophils (Example 14, 0.1-1000 ng/mL, FIG. 11): removed
